Data on 15 molecules can be found in USRE47150 (Bayer, dated 2018).

Assay [1] has as its target T1, human tissue factor pathway inhibitor (TFPI) (human, UniProt P10646 29-304, limits assumed).
T1 construct: bought; also called hTFPI; human TFPI
T1 sequence (looked up): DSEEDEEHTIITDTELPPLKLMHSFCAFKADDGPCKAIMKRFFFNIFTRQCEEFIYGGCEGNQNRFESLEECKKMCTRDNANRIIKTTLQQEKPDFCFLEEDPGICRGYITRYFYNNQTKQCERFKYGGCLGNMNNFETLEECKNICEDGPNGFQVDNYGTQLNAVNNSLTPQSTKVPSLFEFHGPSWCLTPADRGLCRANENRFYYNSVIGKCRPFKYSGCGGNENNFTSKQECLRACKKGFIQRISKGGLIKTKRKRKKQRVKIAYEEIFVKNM
Put plainly: competitive ELISA.

For assay [2], the target named is T2, mouse tissue factor pathway inhibitor (TFPI) (mouse, UniProt O54819 29-289, limits assumed).
T2 construct: bought; also called mTFPI; murine TFPI
T2 sequence (looked up): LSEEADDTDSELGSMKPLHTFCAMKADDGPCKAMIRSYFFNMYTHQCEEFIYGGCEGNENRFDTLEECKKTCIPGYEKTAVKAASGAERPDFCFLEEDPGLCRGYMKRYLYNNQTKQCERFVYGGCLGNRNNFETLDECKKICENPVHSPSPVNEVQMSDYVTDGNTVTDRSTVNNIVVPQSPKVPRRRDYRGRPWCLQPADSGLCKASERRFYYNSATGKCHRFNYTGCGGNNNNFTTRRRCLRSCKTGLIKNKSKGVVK
Briefly: equilibrium ELISA. On the technique in general: In an ELISA, binding on a coated surface is turned into a signal by an enzyme label.

Assay [3] addresses T2, mouse tissue factor pathway inhibitor …. Put plainly: SPR, TFPI immobilized. Background: In SPR one partner is held on a chip, and binding of the other changes the refractive index at the surface.
Assay [4] addresses T1, human tissue factor pathway inhibitor …. Put plainly: competitive ELISA. The source holds these as a separate data set.
Assay [5] addresses T2, mouse tissue factor pathway inhibitor …. Put plainly: competitive ELISA.
Assay [6] addresses T1, human tissue factor pathway inhibitor …. Put plainly: SPR, TFPI immobilized.

B1: 4B7 LC_D97T (Fab, V domains shown)
VH: QVQLQQSGPGLVKPSQTLSLTCAISGDSVSSNSAAWSWIRQSPGRGLEWLGIIYKRSKWYNDYAVSVKSRITINPDTSKNQFSLQLNSVTPEDTAVYYCARWHSDKHWGFDYWGQGTLVTVSS
VL: DIVMTQSPLSLPVTPGEPASISCRSSQSLVFSDGNTYLNWYLQKPGQSPQLLIYKGSNRASGVPDRFSGSGSGTDFTLKISRVEAEDVGVYYCQQYTSYPLTFGQGTKVEIKR
As for B1, the variant/wild-type was 1.8 ratio in assay [1] and 5.5 ratio in assay [2].

B2: 4B7 LC_S32R (Fab, V domains shown)
VH: QVQLQQSGPGLVKPSQTLSLTCAISGDSVSSNSAAWSWIRQSPGRGLEWLGIIYKRSKWYNDYAVSVKSRITINPDTSKNQFSLQLNSVTPEDTAVYYCARWHSDKHWGFDYWGQGTLVTVSS
VL: DIVMTQSPLSLPVTPGEPASISCRSSQSLVFRDGNTYLNWYLQKPGQSPQLLIYKGSNRASGVPDRFSGSGSGTDFTLKISRVEAEDVGVYYCQQYDSYPLTFGQGTKVEIKR
Take B2: the results for the variant/wild-type in assay [1] and in assay [2] were 4.2 ratio and 7.8 ratio, respectively.

B3: 4B7 LC_N35I (Fab, V domains shown)
VH: QVQLQQSGPGLVKPSQTLSLTCAISGDSVSSNSAAWSWIRQSPGRGLEWLGIIYKRSKWYNDYAVSVKSRITINPDTSKNQFSLQLNSVTPEDTAVYYCARWHSDKHWGFDYWGQGTLVTVSS
VL: DIVMTQSPLSLPVTPGEPASISCRSSQSLVFSDGITYLNWYLQKPGQSPQLLIYKGSNRASGVPDRFSGSGSGTDFTLKISRVEAEDVGVYYCQQYDSYPLTFGQGTKVEIKR
For the molecule B3, the values for the variant/wild-type in assay [1] and in assay [2] were 3.6 ratio and 7.1 ratio, respectively.

B4: 4B7 LC_N35T (Fab, V domains shown)
VH: QVQLQQSGPGLVKPSQTLSLTCAISGDSVSSNSAAWSWIRQSPGRGLEWLGIIYKRSKWYNDYAVSVKSRITINPDTSKNQFSLQLNSVTPEDTAVYYCARWHSDKHWGFDYWGQGTLVTVSS
VL: DIVMTQSPLSLPVTPGEPASISCRSSQSLVFSDGTTYLNWYLQKPGQSPQLLIYKGSNRASGVPDRFSGSGSGTDFTLKISRVEAEDVGVYYCQQYDSYPLTFGQGTKVEIKR
Regarding B4, the variant/wild-type in assay [1] was 5.4 ratio; in assay [2], 3.4 ratio.

B5: 4B7 LC_N35V LC_G56D (Fab, V domains shown)
VH: QVQLQQSGPGLVKPSQTLSLTCAISGDSVSSNSAAWSWIRQSPGRGLEWLGIIYKRSKWYNDYAVSVKSRITINPDTSKNQFSLQLNSVTPEDTAVYYCARWHSDKHWGFDYWGQGTLVTVSS
VL: DIVMTQSPLSLPVTPGEPASISCRSSQSLVFSDGVTYLNWYLQKPGQSPQLLIYKDSNRASGVPDRFSGSGSGTDFTLKISRVEAEDVGVYYCQQYDSYPLTFGQGTKVEIKR
B5: the variant/wild-type in assay [1] was 1.9 ratio; in assay [2], 8.2 ratio.

B6: 4B7 LC_F31I (Fab, V domains shown)
VH: QVQLQQSGPGLVKPSQTLSLTCAISGDSVSSNSAAWSWIRQSPGRGLEWLGIIYKRSKWYNDYAVSVKSRITINPDTSKNQFSLQLNSVTPEDTAVYYCARWHSDKHWGFDYWGQGTLVTVSS
VL: DIVMTQSPLSLPVTPGEPASISCRSSQSLVISDGNTYLNWYLQKPGQSPQLLIYKGSNRASGVPDRFSGSGSGTDFTLKISRVEAEDVGVYYCQQYDSYPLTFGQGTKVEIKR
On to B6, for which the variant/wild-type turned out to be 9.1 ratio in assay [1] and 23.6 ratio in assay [2].

B7: 4B7 LC_Y37F (Fab, V domains shown)
VH: QVQLQQSGPGLVKPSQTLSLTCAISGDSVSSNSAAWSWIRQSPGRGLEWLGIIYKRSKWYNDYAVSVKSRITINPDTSKNQFSLQLNSVTPEDTAVYYCARWHSDKHWGFDYWGQGTLVTVSS
VL: DIVMTQSPLSLPVTPGEPASISCRSSQSLVFSDGNTFLNWYLQKPGQSPQLLIYKGSNRASGVPDRFSGSGSGTDFTLKISRVEAEDVGVYYCQQYDSYPLTFGQGTKVEIKR
In the case of B7, the variant/wild-type in assay [1] came to 3.6 ratio; in assay [2] it was 1.9 ratio.

B8: 4B7 LC_N35L (Fab, V domains shown)
VH: QVQLQQSGPGLVKPSQTLSLTCAISGDSVSSNSAAWSWIRQSPGRGLEWLGIIYKRSKWYNDYAVSVKSRITINPDTSKNQFSLQLNSVTPEDTAVYYCARWHSDKHWGFDYWGQGTLVTVSS
VL: DIVMTQSPLSLPVTPGEPASISCRSSQSLVFSDGLTYLNWYLQKPGQSPQLLIYKGSNRASGVPDRFSGSGSGTDFTLKISRVEAEDVGVYYCQQYDSYPLTFGQGTKVEIKR
For the molecule B8, the variant/wild-type in assay [1] was determined as 2.1 ratio; in assay [2] it was 6 ratio.

B9: B2.0 (4B7 HC N32D+D62R+Y112D/LC S32R+D33F+N35I+D97T) (Fab, V domains shown)
VH: QVQLQQSGPGLVKPSQTLSLTCAISGDSVSSDSAAWSWIRQSPGRGLEWLGIIYKRSKWYNRYAVSVKSRITINPDTSKNQFSLQLNSVTPEDTAVYYCARWHSDKHWGFDDWGQGTLVTVSS
VL: DIVMTQSPLSLPVTPGEPASISCRSSQSLVFRFGITYLNWYLQKPGQSPQLLIYKGSNRASGVPDRFSGSGSGTDFTLKISRVEAEDVGVYYCQQYTSYPLTFGQGTKVEIKR
As a reminder, the Kd is the equilibrium constant for the complex coming apart. The low end stands for a tighter complex, the high end for a looser complex. In general, koff refers to a measure of how fast the partners let go of each other. The term kon denotes the rate constant with which the complex forms. A high value points to faster complex formation. As for B9, in assay [3], the KD fold improvement worked out at 1210 fold, binding was put at a Kd of 45.1 pM, the koff was 0.000315 s⁻¹ and the kon came out at 6.99e+06 M⁻¹ s⁻¹. In assay [4], this molecule returned a variant/HC_D62R of 26.2 ratio. In assay [5], this molecule displayed a variant/HC_D62R of 40 ratio. In assay [6], this molecule registered a KD fold improvement of 2180 fold, a Kd of 5.1 pM, a koff of 3.81e-05 s⁻¹ and a kon of 7.46e+06 M⁻¹ s⁻¹.

B10: 4B7 LC_F31M (Fab, V domains shown)
VH: QVQLQQSGPGLVKPSQTLSLTCAISGDSVSSNSAAWSWIRQSPGRGLEWLGIIYKRSKWYNDYAVSVKSRITINPDTSKNQFSLQLNSVTPEDTAVYYCARWHSDKHWGFDYWGQGTLVTVSS
VL: DIVMTQSPLSLPVTPGEPASISCRSSQSLVMSDGNTYLNWYLQKPGQSPQLLIYKGSNRASGVPDRFSGSGSGTDFTLKISRVEAEDVGVYYCQQYDSYPLTFGQGTKVEIKR
Turning to B10, the variant/wild-type was determined as 1.7 ratio in assay [1] and 1.3 ratio in assay [2].

B11: 4B7 LC_S32Y (Fab, V domains shown)
VH: QVQLQQSGPGLVKPSQTLSLTCAISGDSVSSNSAAWSWIRQSPGRGLEWLGIIYKRSKWYNDYAVSVKSRITINPDTSKNQFSLQLNSVTPEDTAVYYCARWHSDKHWGFDYWGQGTLVTVSS
VL: DIVMTQSPLSLPVTPGEPASISCRSSQSLVFYDGNTYLNWYLQKPGQSPQLLIYKGSNRASGVPDRFSGSGSGTDFTLKISRVEAEDVGVYYCQQYDSYPLTFGQGTKVEIKR
For the molecule B11, the variant/wild-type in assay [1] worked out at 2 ratio; in assay [2], 6.7 ratio.

B12: 4B7 LC_N35L LC_G56A (Fab, V domains shown)
VH: QVQLQQSGPGLVKPSQTLSLTCAISGDSVSSNSAAWSWIRQSPGRGLEWLGIIYKRSKWYNDYAVSVKSRITINPDTSKNQFSLQLNSVTPEDTAVYYCARWHSDKHWGFDYWGQGTLVTVSS
VL: DIVMTQSPLSLPVTPGEPASISCRSSQSLVFSDGLTYLNWYLQKPGQSPQLLIYKASNRASGVPDRFSGSGSGTDFTLKISRVEAEDVGVYYCQQYDSYPLTFGQGTKVEIKR
Consider B12, for which the variant/wild-type in assay [1] stood at 3.1 ratio; in assay [2], 6.9 ratio.

B13: 4B7 LC_S61C (Fab, V domains shown)
VH: QVQLQQSGPGLVKPSQTLSLTCAISGDSVSSNSAAWSWIRQSPGRGLEWLGIIYKRSKWYNDYAVSVKSRITINPDTSKNQFSLQLNSVTPEDTAVYYCARWHSDKHWGFDYWGQGTLVTVSS
VL: DIVMTQSPLSLPVTPGEPASISCRSSQSLVFSDGNTYLNWYLQKPGQSPQLLIYKGSNRACGVPDRFSGSGSGTDFTLKISRVEAEDVGVYYCQQYDSYPLTFGQGTKVEIKR
On to B13, for which the variant/wild-type came to 3.1 ratio in assay [1] and 15.3 ratio in assay [2].

B14: gB9.7-IgG (4B7 HC N32D+G44S+K55Y+D62R+Y112D/LC S32R+N35I) (antibody, V domains shown)
VH: QVQLQQSGPGLVKPSQTLSLTCAISGDSVSSDSAAWSWIRQSPSRGLEWLGIIYYRSKWYNRYAVSVKSRITINPDTSKNQFSLQLNSVTPEDTAVYYCARWHSDKHWGFDDWGQGTLVTVSS
VL: DIVMTQSPLSLPVTPGEPASISCRSSQSLVFRDGITYLNWYLQKPGQSPQLLIYKGSNRASGVPDRFSGSGSGTDFTLKISRVEAEDVGVYYCQQYDSYPLTFGQGTKVEIKR
notes: IgG format by its name
In the case of B14, in assay [3], the KD fold improvement was determined as 6250 fold; the affinity, expressed as Kd, was 8.75 pM; the koff was 2.36e-05 s⁻¹; the kon was found to be 2.7e+06 M⁻¹ s⁻¹. In assay [6], this molecule registered a KD fold improvement of 1450 fold, a Kd of 7.65 pM, a koff of 1.56e-05 s⁻¹ and a kon of 2.03e+06 M⁻¹ s⁻¹.

B15: 4B7 LC_S57Y (Fab, V domains shown)
VH: QVQLQQSGPGLVKPSQTLSLTCAISGDSVSSNSAAWSWIRQSPGRGLEWLGIIYKRSKWYNDYAVSVKSRITINPDTSKNQFSLQLNSVTPEDTAVYYCARWHSDKHWGFDYWGQGTLVTVSS
VL: DIVMTQSPLSLPVTPGEPASISCRSSQSLVFSDGNTYLNWYLQKPGQSPQLLIYKGYNRASGVPDRFSGSGSGTDFTLKISRVEAEDVGVYYCQQYDSYPLTFGQGTKVEIKR
Consider B15, for which the results for the variant/wild-type in assay [1] and in assay [2] were 1.6 ratio and 2.2 ratio, respectively.
